Patent publication US20130224224A1 (Boehringer Ingelheim, published 2013)
Where two headings read alike, the source gives them in different places. Blank lines part the entries; values can stand above or below the binder they belong to.

Legend:
human CX3CR1 [1] = molecular target: T1, human CX3CR1 (human, UniProt P49238 1-355); assay: cell-based or functional assay
T1 sequence: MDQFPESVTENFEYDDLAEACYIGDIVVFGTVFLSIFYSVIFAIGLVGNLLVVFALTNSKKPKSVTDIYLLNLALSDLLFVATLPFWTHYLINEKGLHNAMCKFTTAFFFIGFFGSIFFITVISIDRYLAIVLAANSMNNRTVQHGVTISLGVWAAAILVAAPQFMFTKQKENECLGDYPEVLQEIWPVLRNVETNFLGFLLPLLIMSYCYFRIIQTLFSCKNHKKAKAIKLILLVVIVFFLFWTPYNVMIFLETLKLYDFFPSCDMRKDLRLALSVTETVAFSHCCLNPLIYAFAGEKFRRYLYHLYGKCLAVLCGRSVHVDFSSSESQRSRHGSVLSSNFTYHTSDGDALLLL

cynomolgus CX3CR1 [2] = molecular target: T2, cynomolgus CX3CR1 (cynomolgus, UniProt P49238 1-355 (human entry)); assay: FACS binding, cynomolgus against human CX3CR1
T2 construct: transiently expressed on HEK293T cells; also called cyCX3CR1; cyno CX3CR1
T2 chain: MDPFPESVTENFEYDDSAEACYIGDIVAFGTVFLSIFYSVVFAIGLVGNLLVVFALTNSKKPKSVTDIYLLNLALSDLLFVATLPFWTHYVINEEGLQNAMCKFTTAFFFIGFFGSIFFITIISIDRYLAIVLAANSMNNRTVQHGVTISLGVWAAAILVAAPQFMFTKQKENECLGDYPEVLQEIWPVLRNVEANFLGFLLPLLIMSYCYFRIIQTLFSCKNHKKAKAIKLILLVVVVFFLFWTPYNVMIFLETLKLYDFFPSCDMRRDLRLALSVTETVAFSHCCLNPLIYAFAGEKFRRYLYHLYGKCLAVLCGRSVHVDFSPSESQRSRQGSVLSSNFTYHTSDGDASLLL
Method: (§1) Initially, a FACS based binding setup was used to evaluate the cynomolgus cross reactivity. For this, the VHHs were incubated with the respective cells for 30 minutes at 4° C. followed by three wash steps and subsequently incubated with the detection reagents. As detection, a mouse anti-cmyc antibody (Serotec, MCA2200) followed by a goat anti-mouse antibody coupled to PE (Jackson 115-116-071) was used, each incubation for 30 minutes at 4° C., followed by three wash steps.

human CX3CR1 [3] = molecular target: T1, human CX3CR1; assay: A647-fractalkine competition FACS, CHO-huCX3CR1
From the text: (§2) Periplasmic extracts were screened in a human CX3CR1/human Fractalkine FACS competition assay to assess the blocking capacity of the expressed VHHs. Human CX3CR1 was presented on CHO cells overexpressing CX3CR1. Both a setup using cells harvested from an actively growing culture and a setup using frozen cells was used. As a detection reagent labeled fractalkine was used (R&D Systems, Minneapolis, Minn., USA) labeled with alexa647 (A647-Fractalkine) at a degree of labeling of 1. To setup the assay, first a titration series of the labeled fractalkine was performed on the CHO-huCX3CR1 cells in order to determine the EC50 value for binding. Initially screening was performed at a higher concentration of fractalkine (3 nM) to increase the assay robustness. To increase the sensitivity of the screening to a maximum, the EC30 concentration (1 nM) was chosen for subsequent screening. In brief 50 μl of periplasmic extract was added to 6 nM labeled fractalkine (50 μ;) and 200 000 CHO-huCX3CR1 cells. After one hour incubation at 4 C, cells were washed three times before read out was performed on a FACS Array (Becton Dickinson). First a gate was set on the intact cells as determined from the scatter profile. Next, dead cells were gated out by their fluorescence profile from the PI stain (Sigma, St Louis, US). The fluorescence profile from the alexa647 label was determined for each sample and used for calculation of blocking capacity. As controls, conditions were taken along where there was no VHH present in the peri extract or a known irrelevant VHH and samples were included where excess cold fractalkine was included. For each sample the percentage block was determined using the control samples to determine the assay window.
(§3) The blocking capacity towards the ligand fractalkine of the VHHs was evaluated in a human CX3CR1 competition FACS as outlined in Example 4. Either CHO-huCX3CR1 cells, BA/F3-huCX3CR1 cells or transiently transfected HEK293T cells were used. The amount of labeled ligand used in the different competition setups was also varied. The IC₅₀ values for VHHs blocking the interaction of human fractalkine to human CX3CR1 are depicted in Table 19.

human CX3CR1 [4] = molecular target: T1, human CX3CR1; assay: A647-fractalkine competition FACS, BA/F3-huCX3CR1
From the text: as §2, §3

human CX3CR1 [5] = molecular target: T1, human CX3CR1; assay: FACS binding on human CX3CR1 cells, anti-c-myc detection
Method: as §1

cynomolgus CX3CR1 [6] = molecular target: T2, cynomolgus CX3CR1; assay: FACS binding on cynomolgus CX3CR1 cells, anti-c-myc detection
Method: as §1

human CX3CR1 [7] = molecular target: T1, human CX3CR1; assay: competition FACS, BA/F3-huCX3CR1; competitor alexa647-labeled 66B02
From the text: A competitive binding experiment was setup in order to determine whether the VHHs bind overlapping epitopes on CX3CR1. For this, the VHH 66B02 labeled with alexa647 was used in a competition FACS on the BA/F3 cells expressing huCX3CR1. Representative VHHs from the three functional families were used as competitors for the binding of the labeled 66B02.

human CX3CR1 [8] = molecular target: T1, human CX3CR1; assay: periplasmic extract, A647-fractalkine competition FACS, CHO-huCX3CR1
Summary of the method: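 Periplasmic VHH extracts competed with Alexa647-fractalkine (EC30, 1 nM; 3 nM initially) for binding to live or frozen CHO cells overexpressing human CX3CR1, 1 h at 4 C. FACS read on intact, PI-negative cells; percent block derived using no-VHH, irrelevant-VHH and excess cold fractalkine controls.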

human CX3CR1 [9] = molecular target: T1, human CX3CR1; assay: cell-based or functional assay; remark: listed apart in the source
human CX3CR1 [10] = molecular target: T1, human CX3CR1; assay: FACS binding, HEK293T human CX3CR1
cynomolgus CX3CR1 [11] = molecular target: T2, cynomolgus CX3CR1; assay: FACS binding, HEK293T cynomolgus CX3CR1
cynomolgus CX3CR1 [12] = molecular target: T2, cynomolgus CX3CR1; assay: FACS binding, cynomolgus against human CX3CR1
human CX3CR1 [13] = molecular target: T1, human CX3CR1; assay: A647-fractalkine competition FACS, CHO-huCX3CR1; remark: listed apart in the source
From the text: as §2
The inhibition of ligand binding to human CX3CR1 was investigated for the different formats as described in Example 4. For this characterization the BA/F3-huCX3CR1 cell line was used showing stable expression of the human CX3CR1 receptor. The alexa647 labeled ligand fractalkine was used at its EC30 concentration and thereby obtained IC50 values are reflective of the Ki values.

- % block, fractalkine induced chemotaxis (human CX3CR1 [1]): 17%
- ratio (cynomolgus/human EC50) (cynomolgus CX3CR1 [2]): 9
- % block (human CX3CR1 [3]): 33%
- IC50 (human CX3CR1 [3]): 1.8 nM
- % block (human CX3CR1 [4]): 71%
- IC50 (human CX3CR1 [4]): 2.8 nM
- EC50 (human CX3CR1 [5]): 1.5 nM
- EC50 (cynomolgus CX3CR1 [6]): 14 nM
- % block (human CX3CR1 [7]): 100%
- IC50 (human CX3CR1 [7]): 2.3 nM
- % block (human CX3CR1 [8]): 53.1%
B1: CX3CR1BIIPMP18E6 (VHH)
VHH: KVQLVESGGGLVQPGGSLRLSCATSGTIFSNNAMGWYRQAPGKKRDLVASISSSGSTNYADSVKGRFTVSRDNDKNTGYLQMNSLKPEDTGVYYCTLDARRGWNTAYWGQGAQVTVSS
notes: family 13; also called 18E06; CX3CR1BII18E06; not shown: C-terminal c-myc and His6 tags

- % block, fractalkine induced chemotaxis (human CX3CR1 [9]): 79%
- IC50, fractalkine induced chemotaxis (human CX3CR1 [9]): 20 nM
- EC50 (human CX3CR1 [10]): 2 nM
- EC50 (cynomolgus CX3CR1 [11]): 6.8 nM
- ratio (cynomolgus/human EC50) (cynomolgus CX3CR1 [12]): 3.3
- % block (human CX3CR1 [13]): 91%
- IC50 (human CX3CR1 [13]): 0.7 nM
B2: CX3CR1BII009 (VHH)
chain: KVQLVESGGGLVQPGGSLRLSCATSGTIFSNNAMGWYRQAPGKKRDLVASISSSGSTNYADSVKGRFTVSRDNDKNTGYLQMNSLKPEDTGVYYCTLDARRGWNTAYWGQGAQVTVSSGGGGSGGGGSGGGGSGGGGSGGGGSGGGGSGGGGSEVQLVESGGGLVQAGGSLRLSCVASGRTFSSYAMGWFRQAPGKERAFVAGISGSASRKYYADSVKGRFTVSRDNARNTVYLQMNSLKPEDTAVYYCAASNSYPKVQFDYYGQGTQVTVSS
notes: expressed in E. coli as described for the monovalent VHHs

- % block, fractalkine induced chemotaxis (human CX3CR1 [9]): 101%
- IC50, fractalkine induced chemotaxis (human CX3CR1 [9]): 4 nM
- EC50 (human CX3CR1 [10]): 0.31 nM
- EC50 (cynomolgus CX3CR1 [11]): 48 nM
- ratio (cynomolgus/human EC50) (cynomolgus CX3CR1 [12]): 154
- % block (human CX3CR1 [13]): 100%
- IC50 (human CX3CR1 [13]): 0.38 nM
B3: CX3CR1BII007 (VHH)
chain: EVQLVESGGGLVQAGGSLRLSCVASGRTFSSYAMGWFRQAPGKERAFVAGISGSASRKYYADSVKGRFTVSRDNARNTVYLQMNSLKPEDTAVYYCAASNSYPKVQFDYYGQGTQVTVSSGGGGSGGGGSGGGGSGGGGSGGGGSGGGGSGGGGSKVQLVESGGGLVQPGGSLRLSCATSGTIFSNNAMGWYRQAPGKKRDLVASISSSGSTNYADSVKGRFTVSRDNDKNTGYLQMNSLKPEDTGVYYCTLDARRGWNTAYWGQGAQVTVSS
notes: expressed in E. coli as described for the monovalent VHHs (c-myc, His6 tags there)
